Test results as given in article PMC11388181.

Experiments:
[1] = Western blot, B7-H5/GAPDH, HEK293 lysates; settings: glycan lost; control: wild type
[2] = Confocal immunofluorescence, HEK293; settings: glycan lost; control: wild type

Substance	expression_or_secretion [1]	localisation_or_trafficking [2]
B7-H5/VISTA: N108A	no change	no change
B7-H5/VISTA: N128A	no change	no change
B7-H5/VISTA: N135A	no change	no change
B7-H5/VISTA: N91A	no change	no change
B7-H5/VISTA: N49A	no change	no change
